Experimental data: US12460006B2, “Antibodies against integrin alpha 11 beta 1” (Momenta Pharmaceuticals, Inc., priority 2019, dated 2025)
Where a chain is given by its changes, count along the chain named.

T1: α11β1 expressed on the surface of CHO-K1 cells (Homo sapiens, UniProt Q9UKX5)
T1 construct: expressed in transfected cells; host or cells: CHO-K1
T1 sequence (Q9UKX5 23-1188): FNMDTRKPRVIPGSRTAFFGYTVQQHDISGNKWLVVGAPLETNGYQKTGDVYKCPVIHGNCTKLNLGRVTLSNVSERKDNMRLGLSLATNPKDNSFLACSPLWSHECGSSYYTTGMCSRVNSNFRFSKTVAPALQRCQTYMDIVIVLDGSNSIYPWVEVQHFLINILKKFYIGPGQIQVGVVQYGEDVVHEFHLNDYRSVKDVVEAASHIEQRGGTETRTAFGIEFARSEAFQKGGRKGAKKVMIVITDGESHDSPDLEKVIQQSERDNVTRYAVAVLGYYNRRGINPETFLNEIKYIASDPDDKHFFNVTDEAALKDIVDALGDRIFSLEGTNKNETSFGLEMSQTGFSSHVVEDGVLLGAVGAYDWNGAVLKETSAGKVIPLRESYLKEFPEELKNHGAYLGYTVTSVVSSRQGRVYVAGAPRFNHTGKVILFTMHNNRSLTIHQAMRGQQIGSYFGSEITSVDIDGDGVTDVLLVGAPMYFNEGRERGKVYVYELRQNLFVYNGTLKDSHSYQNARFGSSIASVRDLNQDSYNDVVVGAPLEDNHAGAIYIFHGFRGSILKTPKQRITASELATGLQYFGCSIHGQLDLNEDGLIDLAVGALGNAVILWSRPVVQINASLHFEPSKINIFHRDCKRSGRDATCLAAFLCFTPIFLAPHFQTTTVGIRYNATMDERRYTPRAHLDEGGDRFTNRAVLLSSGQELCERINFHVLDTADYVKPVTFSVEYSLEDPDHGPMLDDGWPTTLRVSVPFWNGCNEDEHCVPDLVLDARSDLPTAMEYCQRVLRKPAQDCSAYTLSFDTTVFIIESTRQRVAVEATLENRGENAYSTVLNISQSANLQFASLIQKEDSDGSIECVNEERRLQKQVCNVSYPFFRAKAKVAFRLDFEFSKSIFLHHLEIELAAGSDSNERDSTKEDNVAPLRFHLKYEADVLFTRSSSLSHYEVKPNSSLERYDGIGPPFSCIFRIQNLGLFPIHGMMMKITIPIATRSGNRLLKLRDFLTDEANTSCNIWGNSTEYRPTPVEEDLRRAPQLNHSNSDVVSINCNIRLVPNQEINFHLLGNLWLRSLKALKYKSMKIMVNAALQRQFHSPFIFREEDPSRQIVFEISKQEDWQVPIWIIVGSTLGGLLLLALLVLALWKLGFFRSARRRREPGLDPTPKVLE

B1: 9-B11: mouse anti-α11β1 mAb; VH SEQ ID NO: 115, VL SEQ ID NO: 116 (antibody, V domains shown)
VH: QVQLQQPGAELVRPGTSVKLSCKASGYTFTSYWMHWVQQRPGQGLEWIGVIDPSDSYTNYNQKFKGKATLTVDTSSSSAYMQLSSLTSEDSAVYYCARDDVAMDYWGQGTSVTVSS
VL: DIVVTQSPASLAVSLGQRATISCRASESVDSYGNSFIHWYQQKPGQPPKLLIYRASNLKSGIPARFSGSGSRTDFTLTINPVEADDVATYYCQQSNEDPYTFGGGTKLEIK
B2: 6-M8: mouse anti-α11β1 mAb; VH SEQ ID NO: 129, VL SEQ ID NO: 130 (antibody, V domains shown)
VH: QVQLQQPGAELVMPGASVKLSCKASGYTFTNYWMHWVKQRPGQGLEWIGEIDPSDSYTNYNQKFKGKATLTVDKSSSTAYMQLSSLTSEDSAVYYCTRQGSTYAWGQGTSVTVSS
VL: DIVMTQAAFSNPVTLGTSASISCRSSKSLLHSNGITYLYWYLQKPGQSPQLLIYQMSNLASGVPDRFSSSGSGTDFTLRISRVEAEDVGVYYCAQNLELPPTFGGGTKLEIK
B3: 10-F23: mouse anti-α11β1 mAb; VH SEQ ID NO: 125, VL SEQ ID NO: 126 (antibody, V domains shown)
VH: QVTLKESGPGILQPSQTLSLTCSFSGFSLSTFAMGVGWIRQPSGKGLEWLAHIWWDDDKYYNPALKSRLTISKDTSKNHVFLKIANVDTADTATYYCARMPLTFYFDYWGQGTTLTVSS
VL: DVLLTQTPLSLPVSLGDQASISCRSSQSIVHSNGHTYLEWYLQKPGQSPKLLIYKVSNRFSGVPDRFSGSGSGTDFTLKISRVEAEDLGVYYCFQGSHVPFTFGGGTKLEIK
B4: 6-A12: mouse anti-α11β1 mAb; VH SEQ ID NO: 127, VL SEQ ID NO: 128 (antibody, V domains shown)
VH: B3 VH with S30R, H79Q
VL: B3 VL with L4M, H35N, N58T
B5: 6-B21: mouse anti-α11β1 mAb; VH SEQ ID NO: 123, VL SEQ ID NO: 124 (antibody, V domains shown)
VH: EVQLQQSGPELVKPGASVKISCKASGYTFTDYYMNWVKQSHGKSLEWIGDINPHNGGTSFIQKFKGKATLTVDKSSSTAYMELRSLTSEDSAVYYCAPLGRKEGFAYWGQGTLVTVSA
VL: DTVLTQSPASLVVSLGQRATISCRASKSVSTSGYSYMHWYQQKPGQPPKLLIYLASNLESGVPARFSGSGSGTAFTLNIHPVEEEDAATYYCQHSRELPYTFGGGTKLEIK
B6: 7-H14: mouse anti-α11β1 mAb; VH SEQ ID NO: 121, VL SEQ ID NO: 122 (antibody, V domains shown)
VH: QVQLQQPGAELVRPGASVKLSCKPSGYTFTSYWMNWVKQRPGQGLEWIGMIDPSDSETHYNQMFKDKATLTVDKSSNTAYMQLSSLTSEDSAVYYCAQIYYAYDKAYWGQGTLVTVSA
VL: DIVMSQSPSSLAVSVGEKVTMSCKSSQSLLYSSHQKNYLAWYQQKPGQSPKLLIYWASTRESGVPDRFTGSGSGTDFSLTISSVKAEDLAVYYCQEYYSWTFGGGTKLEIK
B7: 6-O12: mouse anti-α11β1 mAb; VH SEQ ID NO: 117, VL SEQ ID NO: 118 (antibody, V domains shown)
VH: EVKLEESGGGLVQPGGSMKLSCAASGFTFSDAWMDWVRQSPEAGLEWVAEIRNKAHNPATYYAESVKGRFTISRDDSKSSVYLQMNSLRAEDTGIYYCTLVAPDAMDYWGQGTSVTVSS
VL: DIVMSLSPSSLAVSVGEKVTMSCKSSQSLLYSRNQKNYLAWYQQKPGQSPKLLIYWASTRASGVPDRFTGSGSGTDFTLTISSVKAEDLAVYYCQQYYSYPYTFGGGTKLEIK
B8: 3-G5: mouse anti-α11β1 mAb; VH SEQ ID NO: 135, VL SEQ ID NO: 136 (antibody, V domains shown)
VH: QVQLQQSGAELARPGASVKLSCKASGYTFTSYGISWVKQRTGQGLEWIGEIFPRSSNTYYNEKFKGKATLTADKSSSTVYMEFRSLTSEDSAVYFCAREGGLAWFAYWGQGTLVTVSA
VL: DVVMTQTPLTLSVTIGQPASISCKSSQSLLYTNGNTYLNWLLQRPGQSPKRLIYLVSKLDSGIPDRFSGSGSGTDFTLRISRVEAEDLGVYYCLQSTHFPFTFGSGTKLEIK

Tests used:
α1β1, α2β1 and/or α10β1 = assay: Counter-screen for cross-reactivity to other collagen receptors; type: binding, human; conditions: cross-reactivity to α1β1, α2β1, α10β1
Procedure: Wistar rats were immunized with recombinant human α11β1 protein. An enzyme-linked immunosorbent assay (ELISA) was used to test an immune response against target human and mouse proteins. Subsequently, cell fusion (by electro fusion) was performed with animals that produced a good immune response. All fused cells were plated in a 96-well plate and supernatants were screened by ELISA against soluble human and mouse α11β1. Positive clones were counter-screened against human α1β1, α2β1 and α10β1. […] Purified antibodies were then generated from the selected clones and heavy chain and light chain variable domain sequences were obtained from each purified antibody.
10 mice from 5 different strains were immunized with an appropriate mixture of human α11β1, mouse α11β1 and tolerance breaking protein. Plasma titers were evaluated by ELISA against a mixture of human and mouse α11β1. Popliteal, inguinal, and iliac lymph nodes were collected. ELISA-positive anti-human/mouse α11β1 hybridomas were expanded and subjected to a secondary screen against human and mouse α11β1, control HIS protein, and a counter-screen was performed against human […], α2β1 and α10β1. Supernatant IgG concentration was sufficient for functional screening. Selected hybridomas satisfying all the criteria were cloned and clonal hybridomas were confirmed by ELISA against human and mouse α11β1 and subsequently scaled-up and IgGs were purified. Heavy and light chain variable regions of selected hybridomas were then sequenced.
α11β1 belongs to a family of collagen receptors and has a relatively high homology to them. Therefore, the novel antibodies of this invention were counter-screened against α1β1, α2β1 and/or α10β1. Table 2 includes results of cross-reactivity to the other receptors.

[1] = biological target: T1, α11β1 expressed on the surface of CHO-K1 cells; assay: FACS antibody binding to CHO-K1 cells expressing human α11; conditions: binding Yes/No
Procedure: 200,000 cells (wild-type CHO-K1 cells or CHO-K1 cells expressing human α11) were incubated with each antibody at desired concentrations in FACS buffer for 30 min at 4° C. Then, the cells were washed with FACS buffer and incubated with secondary antibody at 1:100 dilution for 30 minutes at 4° C. Cells were then washed and fixed with 1% PFA in PBS for 20 minutes at room temperature; washed again and read on a cytometer in FACS buffer.
Since integrins are large, transmembrane receptors that exist in different conformational shapes, experiments were performed to confirm that the novel antibodies also bound cell-expressed α11β1. A CHO-K1 cell line that endogenously expressed high levels of the β1 subunit was engineered to stably express human α11 (CHO-K1 hu α11).
Binding EC50 was estimated using data from Fluorescence-activated cell sorting (FACS) performed with CHO-K1 hu α11β1 cells.

[2] = test system: Human Pulmonary Fibroblasts; assay: Fibroblast-to-Myofibroblasts Transition (FMT), αSMA expression; type: cell-based; conditions: Yes/No
Procedure: Human Pulmonary Fibroblasts (ScienCell) were cultured in complete Fibroblast Growth Medium (ScienCell) until 80% confluent. Cells were washed and harvested using Accutase. Cells were seeded onto tissue culture-treated 96 well plates at 20,000 cells/well in complete Fibroblast Growth Medium. After 24 hours, cells were washed and starved in serum reduced medium for an additional 24 hours. After starvation, cells were treated with TGFβ-1 (R&D Systems) with or without anti-α11 antibodies. A polyclonal rabbit anti-human α11 antibody was used as a positive control. Appropriate IgG isotype controls were also included. After 48 hours, cells were harvested, fixed, permeabilized and stained with AlexaFluor488 Labeled Anti-αSMA (α-smooth muscle actin) (Invitrogen). Cells were acquired on a FACS Verse (Benton Dickson) to determine expression levels of αSMA. Data were analyzed by gating on single cells and determining the geometric Mean Fluorescence Intensity (gMFI) in the FITC channel for each sample. gMFI for each sample was normalized to the untreated control and presented as % inhibition.
In addition to the binding abilities described above, it is important for an anti-α11β1 antibody to inhibit the fibroblast-to-myofibroblast transition (FMT). It is now appreciated that myofibroblasts are a heterogeneous cell population, existing in different activation states, with the main function of producing and contracting collagen extracellular matrix (ECM). FMT is a multi-step event that is controlled by a changing mechanical environment in tissues undergoing repair. TGFβ is one of the potent factors that potentiates this process and alpha smooth muscle actin (αSMA) is one of the main markers that becomes overexpressed when fibroblasts are undergoing the transition to becoming myofibroblasts. The presence of αSMA enhances fibroblast contraction and guides myofibroblast activation through an intracellular feedback loop. Because αSMA is the main molecular marker of myofibroblasts, the ability of the novel anti-α11β1 mAbs to inhibit αSMA expression in TGFβ-induced FMT was tested.

Row | Molecule | Off Target (α1β1, α2β1 and/or α10β1) | CHO-K1 FACS [1] | Inhibition of FMT [2]
1 | B1 | No | Yes | Yes
2 | B2 | No | No | No
3 | B3 | No | Yes | No
4 | B4 | No | Yes | No
5 | B5 | No | No | No
6 | B6 | No | Yes | No
7 | B7 | No | No | No
8 | B8 | No | No | No
